{"source": "paper PMC4593522", "about": "“Development of a Radiolabeled Peptide-Based Probe Targeting MT1-MMP for Breast Cancer Detection” (PLoS ONE, 2015)", "key": {"[1]": {"test": "In vivo biodistribution study (ex vivo organ counting)", "design": "species or system mice", "conditions": "female, mouse, iv, total radioactivity, mean ± SD, n = 3; for tissue to tissue ratio at 0.5 h: 0.5h after i.v.; for tissue to tissue ratio at 1 h: 1h after i.v.; for tissue to tissue ratio at 2 h: 2h after i.v.", "experimental": "All animal experiments were approved by Jilin University Health Science Center Animal Care and Use Committee. Human breast carcinoma cell line MDA-MB-231 with high MT1-MMP expression and human lung adenocarcinomaepithelial cell line A549 with low MT1-MMP expression were cultured in DMEM medium containing 10% (v/v) fetal bovine serum (Invitrogen) supplemented with penicillin (100 μg/mL) and streptomycin (100 μg/mL) at 37°C with 5% CO2. MDA-MB-231 and A549 tumor models were established by subcutaneous injection of 5×10^6 cells into the upper right front flank of female athymic nude mice (Department of Experimental Animal, Peking University Health Science Center). Tumor growth was monitored by caliper measurements three times a week after the tumors are palpable. The mice were used for SPET/CT imaging when the tumor volume reached about 200 mm3 (about 14 days after tumor inoculations). The tumor volume was determined as the formula: V = a × (b^2)/2, where a and b are the length and width of each tumor in mm respectively. During the injection and image acquisition process, the mice were anesthetized with 2.5% isoflurane in oxygen delivered at a flow rate of 1.5 L/min.\nAnimals were divided into 4 groups (n = 3) for 4 time points with approximately equal distribution of tumor sizes on the day before the study. At 0.5, 1, 2, and 4 h after intravenous administration of [^99mTc]-(HYNIC-AF7P)(tricine)(TPPTS), MDA-MB-231 tumor bearing mice were euthanized. […] The organ uptake was calculated as a percentage of the injected dose per gram of wet tissue (%ID/g)."}, "[2]": {"test": "Partition coefficient (Log P), n-octanol / phosphate buffer", "assay_type": "physicochemical", "conditions": "shake-flask, equal volume mixture of n-octanol and phosphate buffer (25 mM, pH = 7.4); mean ± SD", "experimental": "[^99mTc]-(HYNIC-AF7P)(tricine)(TPPTS) was prepared in two steps. First, HYNIC-AF7P was synthesized (Fig 1) and reacted with Na^99mTcO4 in the presence of excess tricine and SnCl2 to form the intermediate [^99mTc]-(HYNIC-AF7P)(tricine)2, which was then allowed to react with TPPTS to form the ternary ligand complex [^99mTc](HYNIC-AF7P)(tricine)(TPPTS). […] The HPLC retention time was 9.2 min for [^99mTc](HYNIC-AF7P)(tricine)(TPPTS) and the specific activity of final product was 1200 mCi/μmol. The partition coefficient of [^99mTc]-(HYNIC-AF7P)(tricine)(TPPTS) was determined in an equal volume mixture of noctanoland phosphate buffer (25 mM, pH = 7.4). Log P value of [^99mTc]-(HYNIC-AF7P)(tricine)(TPPTS)was -2.39±0.06."}, "[3]": {"conditions": "athymic nude, tumor and intestine, read-out: Tumor/Intestine ratio"}, "[4]": {"conditions": "athymic nude, tumor and pancreas, read-out: Tumor/Pancreas ratio"}, "[5]": {"conditions": "athymic nude, tumor/blood, read-out: Tumor/Blood ratio"}, "[6]": {"conditions": "athymic nude, tumor/bone, read-out: Tumor/Bone ratio"}, "[7]": {"conditions": "athymic nude, tumor/heart, read-out: Tumor/Heart ratio"}, "[8]": {"conditions": "athymic nude, tumor/kidney, read-out: Tumor/Kidney ratio"}, "[9]": {"conditions": "athymic nude, tumor/liver, read-out: Tumor/Liver ratio"}, "[10]": {"conditions": "athymic nude, tumor/lung, read-out: Tumor/Lung ratio"}, "[11]": {"conditions": "athymic nude, tumor/muscle, read-out: Tumor/Muscle ratio"}, "[12]": {"conditions": "athymic nude, tumor/spleen, read-out: Tumor/Spleen ratio"}}, "note": "Read-outs that look alike come from different tables or passages of the source. Square brackets hold non-standard residues; d marks the D form. Peptide text beside a SMILES is read from it. * marks the point of attachment. HYNIC = NNc1ccc(C(=O)*)cn1; AEEA = NCCOCCOCC(=O)O", "data": [{"molecule": "CC(C)C[C@H](NC(=O)[C@H](Cc1ccccc1)NC(=O)[C@@H](NC(=O)[C@H](CCCCN)NC(=O)[C@@H](NC(=O)[C@H](CC(N)=O)NC(=O)[C@H](Cc1c[nH]cn1)NC(=O)[C@H](CC(C)C)NC(=O)[C@H](Cc1c[nH]cn1)NC(=O)[C@H](CCCCN)NC(=O)[C@H](Cc1c[nH]c2ccccc12)NC(=O)[C@H](Cc1c[nH]cn1)NC(=O)c1ccc(NN)nc1)[C@@H](C)O)[C@@H](C)O)C(=O)NCCOCCOCC(=O)O", "note": "[[^99mTc]-(HYNIC-AF7P)(tricine)(TPPTS), metal not drawn] ({HYNIC}-HWKHLHNTKTFL[AEEA]-OH)", "values": [{"measurement": "tissue uptake at 4 h", "setting": "[1]; athymic nude, pancreas, 4h after i.v., read-out: Pancreas uptake", "value": "0.19 ± 0.02", "unit": "%ID/g"}, {"measurement": "tissue to tissue ratio at 0.5 h", "setting": "[1]; [3]", "value": "1.76 ± 0.1"}, {"measurement": "tissue to tissue ratio at 1 h", "setting": "[1]; [3]", "value": "1.61 ± 0.17"}, {"measurement": "tissue to tissue ratio at 2 h", "setting": "[1]; [3]", "value": "1.44 ± 0.13"}, {"measurement": "tissue to tissue ratio at 4 h", "setting": "[1]; athymic nude, tumor and intestine, 4h after i.v., read-out: Tumor/Intestine ratio", "value": "0.93 ± 0.12"}, {"measurement": "tissue to tissue ratio at 4 h", "setting": "[1]; athymic nude, tumor and liver, 4h after i.v., read-out: Tumor/Liver ratio", "value": "0.41 ± 0.04"}, {"measurement": "tissue to tissue ratio at 0.5 h", "setting": "[1]; [4]", "value": "4.4 ± 0.43"}, {"measurement": "tissue to tissue ratio at 1 h", "setting": "[1]; [4]", "value": "4.98 ± 0.16"}, {"measurement": "tissue to tissue ratio at 2 h", "setting": "[1]; [4]", "value": "6.28 ± 0.7"}, {"measurement": "tissue to tissue ratio at 4 h", "setting": "[1]; athymic nude, tumor and pancreas, 4h after i.v., read-out: Tumor/Pancreas ratio", "value": "5.67 ± 0.82"}, {"measurement": "tissue to tissue ratio at 0.5 h", "setting": "[1]; [5]", "value": "9.27 ± 0.28"}, {"measurement": "tissue to tissue ratio at 1 h", "setting": "[1]; [5]", "value": "9.36 ± 0.73"}, {"measurement": "tissue to tissue ratio at 2 h", "setting": "[1]; [5]", "value": "11.1 ± 0.74"}, {"measurement": "tissue to tissue ratio at 4 h", "setting": "[1]; athymic nude, tumor/blood, 4h after i.v., read-out: Tumor/Blood ratio", "value": "5.54 ± 0.55"}, {"measurement": "tissue to tissue ratio at 0.5 h", "setting": "[1]; [6]", "value": "4.21 ± 0.2"}, {"measurement": "tissue to tissue ratio at 1 h", "setting": "[1]; [6]", "value": "4.5 ± 0.51"}, {"measurement": "tissue to tissue ratio at 2 h", "setting": "[1]; [6]", "value": "5.01 ± 0.38"}, {"measurement": "tissue to tissue ratio at 4 h", "setting": "[1]; athymic nude, tumor/bone, 4h after i.v., read-out: Tumor/Bone ratio", "value": "2.6 ± 0.15"}, {"measurement": "tissue to tissue ratio at 0.5 h", "setting": "[1]; [7]", "value": "1.49 ± 0.23"}, {"measurement": "tissue to tissue ratio at 1 h", "setting": "[1]; [7]", "value": "1.56 ± 0.26"}, {"measurement": "tissue to tissue ratio at 2 h", "setting": "[1]; [7]", "value": "2.23 ± 0.2"}, {"measurement": "tissue to tissue ratio at 4 h", "setting": "[1]; athymic nude, tumor/heart, 4h after i.v., read-out: Tumor/Heart ratio", "value": "1.66 ± 0.21"}, {"measurement": "tissue to tissue ratio at 0.5 h", "setting": "[1]; [8]", "value": "0.38 ± 0.01"}, {"measurement": "tissue to tissue ratio at 1 h", "setting": "[1]; [8]", "value": "0.35 ± 0.01"}, {"measurement": "tissue to tissue ratio at 2 h", "setting": "[1]; [8]", "value": "0.45 ± 0.04"}, {"measurement": "tissue to tissue ratio at 4 h", "setting": "[1]; athymic nude, tumor/kidney, 4h after i.v., read-out: Tumor/Kidney ratio", "value": "0.24 ± 0.02"}, {"measurement": "tissue to tissue ratio at 0.5 h", "setting": "[1]; [9]", "value": "0.65 ± 0.06"}, {"measurement": "tissue to tissue ratio at 1 h", "setting": "[1]; [9]", "value": "0.67 ± 0.07"}, {"measurement": "tissue to tissue ratio at 2 h", "setting": "[1]; [9]", "value": "0.75 ± 0.05"}, {"measurement": "tissue to tissue ratio at 0.5 h", "setting": "[1]; [10]", "value": "1.6 ± 0.18"}, {"measurement": "tissue to tissue ratio at 1 h", "setting": "[1]; [10]", "value": "1.81 ± 0.34"}, {"measurement": "tissue to tissue ratio at 2 h", "setting": "[1]; [10]", "value": "2.17 ± 0.14"}, {"measurement": "tissue to tissue ratio at 4 h", "setting": "[1]; athymic nude, tumor/lung, 4h after i.v., read-out: Tumor/Lung ratio", "value": "1.51 ± 0.3"}, {"measurement": "tissue to tissue ratio at 0.5 h", "setting": "[1]; [11]", "value": "3.77 ± 0.42"}, {"measurement": "tissue to tissue ratio at 1 h", "setting": "[1]; [11]", "value": "3.86 ± 0.75"}, {"measurement": "tissue to tissue ratio at 2 h", "setting": "[1]; [11]", "value": "4.17 ± 0.49"}, {"measurement": "tissue to tissue ratio at 4 h", "setting": "[1]; athymic nude, tumor/muscle, 4h after i.v., read-out: Tumor/Muscle ratio", "value": "2.02 ± 0.09"}, {"measurement": "tissue to tissue ratio at 0.5 h", "setting": "[1]; [12]", "value": "3.75 ± 0.46"}, {"measurement": "tissue to tissue ratio at 1 h", "setting": "[1]; [12]", "value": "3.66 ± 0.58"}, {"measurement": "tissue to tissue ratio at 2 h", "setting": "[1]; [12]", "value": "3.94 ± 0.57"}, {"measurement": "tissue uptake at 0.5 h", "setting": "[1]; tumor, 0.5 h after i.v. administration, MDA-MB-231 xenograft, BALB/c nude mice, read-out: Tumor uptake (biodistribution)", "value": "3.37 ± 0.27", "unit": "%ID/g"}, {"measurement": "tissue uptake at 1 h", "setting": "[1]; tumor, 1 h after i.v. administration, MDA-MB-231 xenograft, BALB/c nude mice, read-out: Tumor uptake (biodistribution)", "value": "2.59 ± 0.21", "unit": "%ID/g"}, {"measurement": "tissue uptake at 2 h", "setting": "[1]; tumor, 2 h after i.v. administration, MDA-MB-231 xenograft, BALB/c nude mice, read-out: Tumor uptake (biodistribution)", "value": "2.18 ± 0.11", "unit": "%ID/g"}, {"measurement": "tissue uptake at 4 h", "setting": "[1]; tumor, 4 h after i.v. administration, MDA-MB-231 xenograft, BALB/c nude mice, read-out: Tumor uptake (biodistribution)", "value": "1.05 ± 0.07", "unit": "%ID/g"}, {"measurement": "Log P value (partition coefficient)", "setting": "[2]", "value": "-2.39±0.06"}]}]}
